Here are results for one substance from patent publication US20250109212A1.

In experiment [1] the target is full length human CD47 (NCBI #NP_942088.1) on 293F-CD47 cells (human) (UniProt Q08722). In words: cell-based blocking FACS on 293F-CD47 cells, blocked ligand biotin-labeled human CD172a-Fc, MFI.
Experiment [2] shares this target. The experiment is described as above. The source holds these as a separate data set.
The target is the same in experiment [3]. In words: FACS on 293F-CD47 cells, detection with goat anti-human IgG (Fc)-PE, MFI.

Read-outs that look alike come from different tables or passages of the source.

On to SIRPα-isoform2-Fc (Fc fusion), for which the figures for the half-maximal inhibitory concentration (IC50) in experiment [1] and in experiment [2] were 1.9 nM and 3.25 nM, respectively. In addition, the EC50 (commonly the concentration needed to bring the measured effect to its halfway point) in experiment [3] amounted to 1.72 nM.
